Data: article PMC5053343, “Improvement of free fatty acid production using a mutant acyl-CoA thioesterase I with high specific activity in Escherichia coli” (Biotechnology for Biofuels, 2016)

Substrate: CCCCCCCCCCCCCCCC(=O)SCCNC(=O)CCNC(=O)[C@H](O)C(C)(C)COP(=O)(O)OP(=O)(O)OC[C@H]1O[C@@H](n2cnc3c(N)ncnc32)[C@H](O)[C@@H]1OP(=O)(O)O
Experiment: purified protein
Type: biochemical, Escherichia coli
Settings: 50 mM potassium phosphate pH 7.0, 80 ug/mL BSA, 0.1 mM DTNB, 3.1 x 10^-5 mM enzyme, 0-24 uM palmitoyl-CoA

| Protein | Km [µM] | kcat [s⁻¹] |
| --- | --- | --- |
| 'TesA (leader sequence-deleted acyl-CoA thioesterase I) (Escherichia coli K-12) (protein, signal peptide removed (leaderless), C-terminal (His)6 tag from pET28a (NcoI/XhoI), kept; expressed in E. coli BL21(DE3), Ni-NTA purified) ADTLLILGDSLSAGYRMSASAAWPALLNDKWQSKTSVVNASISGDTSQQGLARLPALLKQHQPRWVLVELGGNDGLRGFQPQQTEQTLRQILQDVKAANAEPLLMQIRLPANYGRRYNEAFSAIYPKLAKEFDVPLLPFFMEEVYLKPQWMQDDGIHPNRDAQPFIADWMAKQLQPLVNHDS | 6.69 | 20.75 |
| 'TesA (leader sequence-deleted acyl-CoA thioesterase I) (Escherichia coli K-12; R90C) (protein, signal peptide removed (leaderless), C-terminal (His)6 tag from pET28a (NcoI/XhoI), kept; expressed in E. coli BL21(DE3), Ni-NTA purified) ADTLLILGDSLSAGYRMSASAAWPALLNDKWQSKTSVVNASISGDTSQQGLARLPALLKQHQPCWVLVELGGNDGLRGFQPQQTEQTLRQILQDVKAANAEPLLMQIRLPANYGRRYNEAFSAIYPKLAKEFDVPLLPFFMEEVYLKPQWMQDDGIHPNRDAQPFIADWMAKQLQPLVNHDS | 4.00 | 27.12 |
